Test results taken from publication PMC6376876.

Tested on: CC(=O)Oc1ccc([N+](=O)[O-])cc1
Test: purified protein

LsALDH16 (Loktanella sp. 3ANDIMAR09)
Km: 1740 µM
Vmax: 7.9 µmol/min/mg
kcat: 10.6 ± 1.6 s⁻¹
kcat/Km: 6000 ± 2000 M⁻¹ s⁻¹
